According to patent US20100278752A1:

What was measured:
Experiment in all cases: cell-based or functional assay
[1] = target: Cathepsin B (Homo sapiens (Human)) (UniProt P07858)
[2] = target: Cathepsin H (Homo sapiens (Human)) (UniProt P09668)
[3] = target: Cathepsin X/Z/P (Homo sapiens (Human)) (UniProt Q9UBR2)
Sequence of Cathepsin X/Z/P (Homo sapiens (Human)) (Q9UBR2 62-303 limits assumed, form in doubt): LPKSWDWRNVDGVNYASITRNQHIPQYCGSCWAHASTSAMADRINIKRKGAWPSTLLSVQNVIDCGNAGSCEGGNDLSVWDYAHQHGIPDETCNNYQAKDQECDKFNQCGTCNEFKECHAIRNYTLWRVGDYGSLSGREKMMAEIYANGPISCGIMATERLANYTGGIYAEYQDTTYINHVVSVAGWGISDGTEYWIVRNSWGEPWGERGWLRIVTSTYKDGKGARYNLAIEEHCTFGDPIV

Sequence of Sialostatin L (Q8MVB6 20-133, tags or fused parts left off): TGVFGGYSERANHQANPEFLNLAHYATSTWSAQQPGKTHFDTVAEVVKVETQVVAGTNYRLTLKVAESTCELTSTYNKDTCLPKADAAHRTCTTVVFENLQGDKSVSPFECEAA
Sequence of Cathepsin H (Homo sapiens (Human)) (P09668 116-335 limits assumed, form in doubt): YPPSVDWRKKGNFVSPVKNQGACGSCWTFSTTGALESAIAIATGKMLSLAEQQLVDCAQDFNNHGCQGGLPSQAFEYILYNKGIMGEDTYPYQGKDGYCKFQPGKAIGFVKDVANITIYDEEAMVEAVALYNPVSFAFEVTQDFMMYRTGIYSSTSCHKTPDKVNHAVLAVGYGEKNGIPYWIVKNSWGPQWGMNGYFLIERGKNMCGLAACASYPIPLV

Substance	IC50 (inhibitor concentration at which 50% inhibition of enzymatic activity is achieved) [1]	IC50 (inhibitor concentration at which 50% inhibition of enzymatic activity is achieved) [2]	IC50 (inhibitor concentration at which 50% inhibition of enzymatic activity is achieved); 16 nM enzyme [3]
Sialostatin L2 (from UniProt B7PKZ1 19-132)	> 10 µM	> 10 µM	> 10 µM
Sialostatin L (from UniProt Q8MVB6 20-133)	> 10 µM	> 10 µM	–
